Test results from patent US20140044738A1 (AstraZeneca / MedImmune, published 2014).
Blank lines part the entries; values can stand above or below the molecule they belong to.

Tests used:
[1] = target: human PD-1, full length, expressed on the cell surface (human) (UniProt Q15116); assay: flow cytometry: human primary CD8 T cells, CD45RA low; PD-1 as the cells express it
[2] = target: human PD-1, full length, expressed on the cell surface (human) (UniProt Q15116); assay: flow cytometry: human primary CD8 T cells, CD45RA med; PD-1 as the cells express it
[3] = target: human PD-1, full length, expressed on the cell surface (human) (UniProt Q15116); assay: flow cytometry: human primary CD4 T cells, CD45RA low; PD-1 as the cells express it
[4] = target: human PD-1, full length, expressed on the cell surface (human) (UniProt Q15116); assay: flow cytometry: human primary CD4 T cells, CD45RA med; PD-1 as the cells express it
[5] = target: human PD-1, full length, expressed on the cell surface (human) (UniProt Q15116); assay: flow cytometry: human primary CD8 T cells, CD45RA high; PD-1 as the cells express it
[6] = target: human PD-1, full length, expressed on the cell surface (human) (UniProt Q15116); assay: flow cytometry: human primary CD4 T cells, CD45RA high; PD-1 as the cells express it
[7] = target: human PD-1, full length, expressed on the cell surface (human) (UniProt Q15116); assay: flow cytometry: CHO cells with full-length human PD-1 pre-incubated with Ctl Ig, then hB7-DC mIg + a-mIg-APC; a-mIg-APC alone MFI=10
[8] = target: T1, human B7-H1, full length, expressed on the cell surface (human, UniProt Q9NZQ7 19-290); assay: flow cytometry on CHO cells expressing human B7-H1, median fluorescence intensity
T1 construct: whole, on cells; also called CHO-hB7-H1; CHO-B7-H1 cells
T1 sequence (Q9NZQ7 19-290): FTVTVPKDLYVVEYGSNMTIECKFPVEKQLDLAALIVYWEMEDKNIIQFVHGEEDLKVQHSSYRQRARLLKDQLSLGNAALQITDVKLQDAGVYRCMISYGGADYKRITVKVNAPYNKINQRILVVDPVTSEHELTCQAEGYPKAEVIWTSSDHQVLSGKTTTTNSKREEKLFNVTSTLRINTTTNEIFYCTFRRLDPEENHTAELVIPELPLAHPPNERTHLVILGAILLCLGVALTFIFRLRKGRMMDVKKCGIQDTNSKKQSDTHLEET

[9] = target: T2, human PD-1 (form in the assay not stated) (human, UniProt Q15116 25-167, limits assumed); assay: method not stated
T2 construct: Used for the kinetic constants and EC50 values whose assay format is not described
T2 sequence (Q15116 25-167 limits assumed): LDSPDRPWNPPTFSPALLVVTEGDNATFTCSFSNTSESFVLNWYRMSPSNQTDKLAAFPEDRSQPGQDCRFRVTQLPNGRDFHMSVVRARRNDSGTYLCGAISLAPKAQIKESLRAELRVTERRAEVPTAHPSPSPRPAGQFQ

[10] = target: T3, human PD-1, full length, expressed on the cell surface (human, UniProt Q15116 25-288); assay: cell-based or functional assay
T3 sequence (Q15116 25-288): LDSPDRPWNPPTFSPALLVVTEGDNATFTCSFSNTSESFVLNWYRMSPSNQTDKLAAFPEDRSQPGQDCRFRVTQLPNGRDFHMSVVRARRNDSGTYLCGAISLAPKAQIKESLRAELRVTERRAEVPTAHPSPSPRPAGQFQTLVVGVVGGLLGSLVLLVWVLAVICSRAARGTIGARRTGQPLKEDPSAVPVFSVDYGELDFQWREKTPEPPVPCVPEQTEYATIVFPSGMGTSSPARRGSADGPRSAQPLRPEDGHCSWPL

[11] = target: T2, human PD-1 (form in the assay not …); assay: PD-1-specific binding at 0 to approximately 350 nM antibody (FIG. 20); format not stated
human PD-1-Fc [12] = target: T4, human PD-1-Fc (human, UniProt Q15116 25-167, limits assumed, biotinylated in the B7-DC blocking ELISA); assay: blocking, flow cytometry, by paragraph 273: the construct binds hPD-1-Fc and blocks its binding to hB7-H1 expressed by CHO cells (the legend paragraph 64 calls it a binding curve on CHO.hPD-1 cells; the curve falls); set-up: unit not given here
T4 construct: also called hPD-1-Fc; biotinylated PD-1-Fc
T4 sequence (Q15116 25-167 limits assumed): as the sequence (Q15116 25-167 limits assumed) above

human PD-1-Fc [13] = target: T4, human PD-1-Fc; assay: ELISA: hybridoma supernatant on immobilised rhPD-1/Fc, anti-mouse IgG
Protocol: Splenocytes from anti-PD-1 positive animals were fused with myeloma cells following standard protocol. The resulting murine hybridomas were screened for those that express high affinity human PD-1-immunoreactive monoclonal antibodies. Antibodies were additionally evaluated to determine whether they were IgG or IgM antibodies. […] Hybridoma supernatants were then placed in contact with the support, and the presence of anti-PD-1 antibody was determined using labeled anti-mouse IgG or anti-mouse IgM.

[14] = target: T3, human PD-1, full length, expressed on …; assay: cell-based competition: CHO-hPD1 cells, antibody 30 min, then 10 µg/ml APC-labeled B7-DC-Fc; axis 100 to 0 without a unit (text: 0-0.1 mg/ml)
Protocol: A cell-based competition assay was performed by incubating 50,000 CHO-hPD1 cells for 30 minutes with anti-PD-1 antibody (present at concentrations ranging from 0-0.1 mg/ml). […] The competition was repeated at a fixed antibody concentration of 20 μg/mL (FIG. 11).

human PD-1, full length, expressed on the cell surface (human), sequence (Q15116 25-288): as the sequence (Q15116 25-288) above

number over the gate of positive cells [1]: 1.6
number over the gate of positive cells [2]: 1.6
number over the gate of positive cells [3]: 2.1
number over the gate of positive cells [4]: 1.1
number over the gate of positive cells [5]: 1.5
number over the gate of positive cells [6]: 1.4
Molecule: SYNAGIS (antibody)

MFI [7]: 2930
B1: B7-DC-Fc (Fc fusion, part only; not given: Fc part, human, UniProt Q9BQ51 20-220, looked up, part only)
chain, part: LFTVTVPKELYIIEHGSNVTLECNFDTGSHVNLGAITASLQKVENDTSPHRERATLLEEQLPLGKASFHIPQVQVRDEGQYQCIIIYGVAWDYKYLTLKVKASYRKINTHILKVPETDEVELTCQATGYPLAEVSWPNVSVPANTSHSRTPEGLYQVTSVLRLKPPPGRNFSCVFWNTHVRELTLASIDLQSQMEPRTHPT
modifications: APC-labeled or biotinylated in the cell-based assays

MFI [8]: 56200
B2: Anti-Human B7-H1 Clone 1E12 (antibody, V domains shown)
VH: EVKLQESGPSLVKPSQTLSLTCSVTGYSITSDYWNWIRKFPGNKLEYVGYISYTGSTYYNPSLKSRISITRDTSKNQYYLQLNSVTSEDTATYYCARYGGWLSPFDYWGQGTTLTVSS
VL: DIVMTQSHKLMSTSVGDRVSITCKASQDVGTAVAWYQQKPGQSPKLLIYWASTRHTGVPDRFTGSGSGTDFTLTISNVQSEDLADYFCQQDSSYPLTFGAGTKVELK
notes: Murine hybridoma IgG

MFI [8]: 62000
B3: Anti-Human B7-H1 Clone 1F4 (antibody, V domains shown)
VH: EVQLQESGPGLVAPSQSLSITCTVSGFSLTTYSINWIRQPPGKGLEWLGVMWAGGGTNSNSVLKSRLIISKDNSKSQVFLKMNSLQTDDTARYYCARYYGNSPYYAIDYWGQGTSVTVSS
VL: DIVTTQSHKLMSTSVGDRVSITCKASQDVGTAVAWYQQKPGQSPKLLIYWASTRHTGVPDRFTGSGSGTDFTLTISNVQSEDLADYFCQQDSSYPLTFGAGTKVELK
notes: Murine hybridoma IgG

Kd [9]: 2.19 nM
koff [9]: 0.000161 s⁻¹
kon [9]: 73400 M⁻¹ s⁻¹
T cell proliferation [10]: ~7 fold
EC50 [11]: 3 nM
IC50 (read off the curve) (human PD-1-Fc [12]): ~100
B4: 1H3 Construct (chimeric murine anti-human PD-1 Fab regions of antibody 1H3 and a human IgG1 Fc region) (antibody, V domains shown)
VH: EVQLVESGGGLVKPGGSLKLSCAASGFTFSDYGMHWVRQAPEKGLEWVAYISSGSYTIYYTDTVKGRFTISRDNAKNTLFLQMTSLRSEDTAMYYCARRGYGSFYEYYFDYWGQGTTLTVSS
VL: QIVLTQSPALMSASPGEKVTMTCSASSSVSYMYWYQQKPRSSPKPWIYLTSNLASGVPARFSGSGSGTSYSLTISSMEAEDAATYYCQQWSSNPFTFGSGTKLEIK
notes: also called 1H3 anti-human PD-1 chimeric antibody; chimeric 1H3

EC50 [11]: 3 nM
B5: h1H3 Var 2 (antibody, V domains shown)
VH: EVQLVESGGGLVQPGGSLRLSCAASGFTFSDYGMHWVRQAPGKGLEWVAYISSGSYTIYYADSVKGRFTISRDNAKNTLYLQMSSLRAEDTAVYYCARRGYGSFYEYYFDYWGQGTTVTVSS
VL: EIVLTQSPATLSLSPGERATLSCRASSSVSYMYWYQQKPGQAPRLLIYLASNRATGIPARFSGSGSGTDYTLTISSLEPEDFAVYYCQQWSSNPFTFGQGTKLEIK
notes: Humanized variable domains LC1_1 / HC1_2

EC50 [11]: 3 nM
B6: h1H3 Var 6 (antibody, V domains shown)
VH: EVQLVESGGGLVQPGGSLRLSCAASGFTFSDYGMHWVRQAPGKGLEWVAYISSGSYTIYSADSVKGRFTISRDNAKNTLYLQMSSLRAEDTAVYYCARRGYGSFYEYYFDYWGQGTTVTVSS
VL: QIVLTQSPATLSLSPGERATLSCSASSSVSYMYWYQQKPGQAPRLLIYLTSNRATGIPARFSGSGSGTDYTLTISSLEPEDFAVYYCQQWSSNPFTFGQGTKLEIK
notes: Humanized variable domains LC1_2 / HC1_3

EC50 [11]: 6 nM
B7: h1H3 Var 4 (antibody, V domains shown)
VH: EVQLVESGGGLVQPGGSLRLSCAASGFTFSDYGMHWVRQAPGKGLEWVSYISSGSSTIYYADSVKGRFTISRDNAKNTLYLQMSSLRAEDTAVYYCARRGYGSFYEYYFDYWGQGTTVTVSS
VL: QIVLTQSPATLSLSPGERATLSCSASSSVSYMYWYQQKPGQAPRLLIYLTSNRATGIPARFSGSGSGTDYTLTISSLEPEDFAVYYCQQWSSNPFTFGQGTKLEIK
notes: Humanized variable domains LC1_2 / HC1_1

EC50 [11]: 6 nM
B8: h1H3 Var 1 (antibody, V domains shown)
VH: EVQLVESGGGLVQPGGSLRLSCAASGFTFSDYGMHWVRQAPGKGLEWVSYISSGSSTIYYADSVKGRFTISRDNAKNTLYLQMSSLRAEDTAVYYCARRGYGSFYEYYFDYWGQGTTVTVSS
VL: EIVLTQSPATLSLSPGERATLSCRASSSVSYMYWYQQKPGQAPRLLIYLASNRATGIPARFSGSGSGTDYTLTISSLEPEDFAVYYCQQWSSNPFTFGQGTKLEIK
notes: Humanized variable domains LC1_1 / HC1_1

EC50 [11]: 3 nM
B9: h1H3 Var 3 (antibody, V domains shown)
VH: EVQLVESGGGLVQPGGSLRLSCAASGFTFSDYGMHWVRQAPGKGLEWVAYISSGSYTIYSADSVKGRFTISRDNAKNTLYLQMSSLRAEDTAVYYCARRGYGSFYEYYFDYWGQGTTVTVSS
VL: EIVLTQSPATLSLSPGERATLSCRASSSVSYMYWYQQKPGQAPRLLIYLASNRATGIPARFSGSGSGTDYTLTISSLEPEDFAVYYCQQWSSNPFTFGQGTKLEIK
notes: Humanized variable domains LC1_1 / HC1_3

EC50 [11]: 3 nM
B10: h1H3 Var 5 (antibody, V domains shown)
VH: EVQLVESGGGLVQPGGSLRLSCAASGFTFSDYGMHWVRQAPGKGLEWVAYISSGSYTIYYADSVKGRFTISRDNAKNTLYLQMSSLRAEDTAVYYCARRGYGSFYEYYFDYWGQGTTVTVSS
VL: QIVLTQSPATLSLSPGERATLSCSASSSVSYMYWYQQKPGQAPRLLIYLTSNRATGIPARFSGSGSGTDYTLTISSLEPEDFAVYYCQQWSSNPFTFGQGTKLEIK
notes: Humanized variable domains LC1_2 / HC1_2

binding result (human PD-1-Fc [13]): binds
binding result [14]: binds
B11: Anti-Human PD-1 Clone 1E3 (antibody, IgG1, V domains shown)
VH: EVQLQQSGPVLVKPGASVKMSCKASGYTFTDYYMNWVKQSHGKSLEWIGNINPYNGGTTYNQKFKGKATLTVDKSSRTAYMEINSLTSEDSAVYYCARGRIYDGSLDYWGQGTALTVSS
VL: DIQMTQFPSSLCASQGGKVTVTCKASQDINNYMAWYQHKPGKGPRLLIHYTSTLLSGIPSRFSGSGSGRDYSFSISNLEPEDIATYYCLQYDNLWTFGGGTKLEIK
notes: Murine hybridoma antibody, IgG1/kappa

MFI [8]: 53100
B12: Anti-Human B7-H1 Clone 3D10 (antibody, V domains shown)
VH: EVQLQQSGPDLVTPGASVRISCQASGYTFPDYYMNWVKQSHGKSLEWIGDIDPNYGGTTYNQKFKGKAILTVDRSSSTAYMELRSLTSEDSAVYYCARGALTDWGQGTSLTVSS
VL: QIVLSQSPAILSASPGEKVTMTCRASSSVSYIYWFQQKPGSSPKPWIYATFNLASGVPARFSGSGSGTSYSLTISRVETEDAATYYCQQWSNNPLTFGAGTKLELK
notes: Murine hybridoma IgG

MFI [8]: 59600
B13: Anti-Human B7-H1 Clone 3B6 (antibody, V domains shown)
VL: DIVMTQSPAIMSASPGEKVTMTCSASSSIRYMHWYQQKPGTSPKRWISDTSKLTSGVPARFSGSGSGTSYALTISSMEAEDAATYYCHQRSSYPWTFGGGTKLEIK
V domain: EVKLQESGPSLVKPGASVKLSCKASGYTFTSYDINWVKQRPGQGLEWIGWIFPRDNNTKYNENFKGKATLTVDTSSTTAYMELHSLTSEDSAVYFCTKENWVGDFDYWGQGTTLTLSS
notes: Murine hybridoma IgG
